Assay results published in patent US20040171794A1 (DYAX, published 2004).

Molecular target: T1, human neutrophil elastase (human, UniProt P08246 30-247, limits assumed)
T1 construct: also called HNE; hNE
T1 sequence (looked up): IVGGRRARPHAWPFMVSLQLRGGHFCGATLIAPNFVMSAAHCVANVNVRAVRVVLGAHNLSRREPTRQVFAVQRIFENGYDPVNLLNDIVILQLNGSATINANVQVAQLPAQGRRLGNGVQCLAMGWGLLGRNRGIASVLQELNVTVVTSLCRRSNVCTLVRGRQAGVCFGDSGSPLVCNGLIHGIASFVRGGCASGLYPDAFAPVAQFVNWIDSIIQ
Assay: equilibrium inhibition of HNE activity on a fluorogenic peptide substrate, tight-binding model, 24 h incubation at 30 C
Procedure: Inhibition of hNE was determined at 30° C. in 50 mM HEPES, pH 7.5, 150 mM NaCl, and 0.1% Triton X-100. […] Residual enzymatic activities were determined from the relative rates of substrate hydrolysis. The hydrolysis reaction was initiated by addition of N-methoxysuccinyl-Ala-Ala-Pro-Val-7-amino-methylcoumarin (SEQ ID No.: 41) as substrate. Enzymatic cleavage of this substrate releases the methylcoumarin moiety with concomitant increase the sample fluorescence. The rate of substrate hydrolysis was monitored at an excitation of 360 nm and an emission of 460 nm. Plots of the percent remaining activity versus inhibitor concentration were fit by nonlinear regression analysis to Equation 1 to determine equilibrium dissociation constants.

binding result: binds
B1: DX-890 (peptide)
chain: EACNLPIVRGPCIAFFPRWAFDAVKGKCVLFPYGGCQGNGNKFYSEKECREYCGVP
notes: also called native DX-890
